From PMC5193468

T1: His-MBP-Lin28TT (Homo sapiens, UniProt Q9H9Z2 32-187)
T1 sequence: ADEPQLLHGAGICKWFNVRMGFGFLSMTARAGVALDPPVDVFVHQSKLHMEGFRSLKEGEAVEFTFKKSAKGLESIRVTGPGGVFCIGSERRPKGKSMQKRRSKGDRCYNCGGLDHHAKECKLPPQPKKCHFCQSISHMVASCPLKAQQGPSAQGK


Tests used:
His-MBP-Lin28TT [1] = molecular target: T1, His-MBP-Lin28TT; experiment: fluorescence anisotropy; 50 uM ZnCl2; FA: 20 nM 5'-fluorescein RNA, 20 mM Tris-HCl pH 7.5, 50-750 mM NaCl (100 mM for the main miR-363 Kd), 10 mM beta-mercaptoethanol, 50 uM ZnCl2, 0.01% Tween 20, 2
His-MBP-Lin28TT [2] = molecular target: T1, His-MBP-Lin28TT; experiment: fluorescence anisotropy; 250 mM NaCl; 50 uM ZnCl2; FA: 20 nM 5'-fluorescein RNA, 20 mM Tris-HCl pH 7.5, 50-750 mM NaCl (100 mM for the main miR-363 Kd), 10 mM beta-mercaptoethanol, 50 uM ZnCl2, 0.01% Tween 20, 2
His-MBP-Lin28TT [3] = molecular target: T1, His-MBP-Lin28TT; experiment: fluorescence anisotropy; 750 mM NaCl; 50 uM ZnCl2; FA: 20 nM 5'-fluorescein RNA, 20 mM Tris-HCl pH 7.5, 50-750 mM NaCl (100 mM for the main miR-363 Kd), 10 mM beta-mercaptoethanol, 50 uM ZnCl2, 0.01% Tween 20, 2
His-MBP-Lin28TT [4] = molecular target: T1, His-MBP-Lin28TT; experiment: fluorescence anisotropy; 500 mM NaCl; 50 uM ZnCl2; FA: 20 nM 5'-fluorescein RNA, 20 mM Tris-HCl pH 7.5, 50-750 mM NaCl (100 mM for the main miR-363 Kd), 10 mM beta-mercaptoethanol, 50 uM ZnCl2, 0.01% Tween 20, 2
His-MBP-Lin28TT [5] = molecular target: T1, His-MBP-Lin28TT; experiment: fluorescence anisotropy; 100 mM NaCl; 50 uM ZnCl2; FA: 20 nM 5'-fluorescein RNA, 20 mM Tris-HCl pH 7.5, 50-750 mM NaCl (100 mM for the main miR-363 Kd), 10 mM beta-mercaptoethanol, 50 uM ZnCl2, 0.01% Tween 20, 2

| Binder | Kd (His-MBP-Lin28TT [1]) [nM] | Kd (His-MBP-Lin28TT [2]) [nM] | Kd (His-MBP-Lin28TT [3]) [nM] | Kd (His-MBP-Lin28TT [4]) [nM] | Kd (His-MBP-Lin28TT [5]) [nM] |
| --- | --- | --- | --- | --- | --- |
| CGGGUCUAUGAUACCACCCGGUACAGGAG (structured_RNA) [let-7g 29-57] | 54.1 ± 4.2 | – | – | – | – |
| GAUGCAAUUUUGAUGAGUAUCAUAGGAG (structured_RNA) [miR-363 19-46] | – | 6.6 ± 0.9 | 12.4 ± 1.1 | 8 ± 0.8 | 16.6 ± 1.9 |
